B1: G001_gp1_V10_VRC01c_2021-0087 (antibody, V domains shown)
VH: QVQLVQSGAEVKKPGASVKVSCKASGYTFTGNYIHWVRQAPGQGLEWVGWLNPNSGGTNYAQQFQGRVTMTRDTSISTAYMELNRLRSDDTAVFYCARGLWQWEFRYWGQGTLVTVSS
VL: DIVLTQSPGTLSLSPGERATLSCRASQSVSSSNLAWYQQKPGQAPRLLIYGASSRATGIPDRFSGSGSGTDFTLTISRLEPEDCAVYYCQQYEGFGGGTKVEIK
notes: also called G001-0087
B2: G001_gp1_V10_VRC01c_179 (antibody, V domains shown)
VH: QVQLVQSGADVKKPGASVKVSCKASGYTFTDYYMHWVRQAPGQGLEWMGWINPNSGGTNYAQKFQDRVTMTRDTSVSTAYMEVSGLRSDDTAVYYCARIKLCNGGSCNWSLGYWGQGSLVTVSS
VL: DIQMTQSPSSLSASVGDRVTITCQASQDISNYLNWYQQKPGKAPKLLIYGASNLETGVPSRFSGSGSGTDFTFTISSLQPEDIATYYCQQYEFFGPGTKVDIK
notes: also called G001-179
B3: G001_LD_07A_VRC01c_58 (antibody, V domains shown)
VH: QVQLVQSGAEVRKPGASVKVSCKASGYTFTDYYIHWVRQAPGQGLEWMGWINPNSGGTNYAQKFQGWVTMTRDTSISTAHMELRRLRSDDRAVYYCARGVVHSGFEFGYWGQGTLVTVSS
VL: DIQMTQSPSTLSASVGDRVTITCRASQSISNWLAWYQQKPGKAPKLLIYKASSLESGVPSRFSGSGSGTEFTLTISSLQPDDFATYYCQQYETFGQGTKVEIK
notes: also called G001-58
B4: G001_LD_07A_VRC01c_59 (antibody, V domains shown)
VH: QVQLVQSGAEVKKPGTSVKVSCKASEYTFTGYYVHWVRQAPGQGLEWMGWINPNSGGTNYAQKFQGWVTMTRDTSISTAYMELSRLKSDDTAVYYCARSDYISSWYFGYWGQGTLVTVSS
VL: EIVMTQSPATLSVSPGERATLSCRASQSVSSNLAWYQQKPGQAPRLLIYGTSTRATGIPARFSGSGSGTEFTLTISSLQSEDFAVYYCQQYETFGQGTKVEIK
notes: also called G001-59

The binders below were run against T1, eOD-GT8 (Human immunodeficiency virus 1, …) (assay: SPR; monoclonal IgGs and eOD-GT8; as previously described (ref. 19)). Conditions: both partners purified.
T1 construct: also called engineered outer domain germline-targeting version 8; eOD-GT8 monomer
For B1, the Kd was 0.15 nM. B2 was tested, and the Kd was 0.13 nM. In the case of B3, the Kd is reported as 0.437 nM. B4 gave a Kd of 1.76 nM.

Reference: article doi:10.1101/2025.05.22.655646 (bioRxiv, 2025)
